Measurements: the supplement of paper PMC11246515
± gives the standard deviation of the averaged measurements.

Test: total protein half-life in vivo (active degradation + dilution); higher = more stable protein
[1] = E. coli NCM3722 delta-clpP delta-lon delta-hslV, growth: N-lim chemostat, doubling time 6 h
[2] = E. coli NCM3722 delta-clpP, growth: N-lim chemostat, doubling time 6 h
[3] = E. coli NCM3722 delta-hslV, growth: N-lim chemostat, doubling time 6 h
[4] = E. coli NCM3722 delta-lon, growth: N-lim chemostat, doubling time 6 h
[5] = E. coli NCM3722 delta-smpB, growth: N-lim chemostat, doubling time 6 h
[6] = wild type E. coli NCM3722, growth: C-lim chemostat, doubling time 3 h
[7] = wild type E. coli NCM3722, growth: C-lim chemostat, doubling time 6 h
[8] = wild type E. coli NCM3722, growth: C-lim chemostat, doubling time 12 h
[9] = wild type E. coli NCM3722, growth: N-lim chemostat, doubling time 6 h
[10] = wild type E. coli NCM3722, growth: N-lim chemostat, doubling time 12 h
[11] = wild type E. coli NCM3722, growth: P-lim chemostat, doubling time 6 h
[12] = wild type E. coli NCM3722, growth: P-lim chemostat, doubling time 12 h

Row | Sequence | total protein half-life in vivo [1] [h] | total protein half-life in vivo [2] [h] | total protein half-life in vivo [3] [h] | total protein half-life in vivo [4] [h] | total protein half-life in vivo [5] [h] | total protein half-life in vivo [6] [h] | total protein half-life in vivo [7] [h] | total protein half-life in vivo [8] [h] | total protein half-life in vivo [9] [h] | total protein half-life in vivo [10] [h] | total protein half-life in vivo [11] [h] | total protein half-life in vivo [12] [h]
1 | MRKFTLNIFTLSLGLAVMPMVEAAPTAQQQLLEQVRLGEATHREDLVQQSLYRLELIDPNNPDVVAARFRSLLRQGDIDGAQKQLDRLSQLAPSSNAYKSSRTTMLLSTPDGRQALQQARLQATTGHAEEAVASYNKLFNGAPPEGDIAVEYWSTVAKIPARRGEAINQLKRINADAPGNTGLQNNLALLLFSSDRRDEGFAVLEQMAKSNAGREGASKIWYGQIKDMPVSDASVSALKKYLSIFSDGDSVAAAQSQLAEQQKQLADPAFRARAQGLAAVDSGMAGKAIPELQQAVRANPKDSEALGALGQAYSQKGDRANAVANLEKALALDPHSSNNDKWNSLLKVNRYWLAIQQGDAALKANNPDRAERLFQQARNVDNTDSYAVLGLGDVAMARKDYPAAERYYQQTLRMDSGNTNAVRGLANIYRQQSPEKAEAFIASLSASQRRSIDDIERSLQNDRLAQQAEALENQGKWAQAAALQRQRLALDPGSVWITYRLSQDLWQAGQRSQADTLMRNLAQQKSNDPEQVYAYGLYLSGHDQDRAALAHINSLPRAQWNSNIQELVNRLQSDQVLETANRLRESGKEAEAEAMLRQQPPSTRIDLTLADWAQQRRDYTAARAAYQNVLTREPANADAILGLTEVDIAAGDKAAARSQLAKLPATDNASLNTQRRVALAQAQLGDTAAAQRTFNKLIPQAKSQPPSMESAMVLRDGAKFEAQAGDPTQALETYKDAMVASGVTTTRPQDNDTFTRLTRNDEKDDWLKRGVRSDAADLYRQQDLNVTLEHDYWGSSGTGGYSDLKAHTTMLQVDAPYSDGRMFFRSDFVNMNVGSFSTNADGKWDDNWGTCTLQDCSGNRSQSDSGASVAVGWRNDVWSWDIGTTPMGFNVVDVVGGISYSDDIGPLGYTVNAHRRPISSSLLAFGGQKDSPSNTGKKWGGVRADGVGLSLSYDKGEANGVWASLSGDQLTGKNVEDNWRVRWMTGYYYKVINQNNRRVTIGLNNMIWHYDKDLSGYSLGQGGYYSPQEYLSFAIPVMWRERTENWSWELGASGSWSHSRTKTMPRYPLMNLIPTDWQEEAARQSNDGGSSQGFGYTARALLERRVTSNWFVGTAIDIQQAKDYAPSHFLLYVRYSAAGWQGDMDLPPQPLIPYADW | 6.16 ± 0.12 | 6.7 ± 0.36 | 6.74 ± 0.87 | 6.13 ± 0.61 | 5.66 ± 0.14 | 3.2 ± 0.16 | 6.39 ± 0.4 | 11.2 ± 1.1 | 6.4455 ± 0.00019 | 13.8 ± 0.91 | 6.24 ± 0.29 | 13.3 ± 0.38
2 | MTQPVLDIQQLHLSFPGFNGDVHALNNVSLQINRGEIVGLVGESGSGKSVTAMLIMRLLPTGSYCVHRGQISLLGEDVLNAREKQLRQWRGARVAMIFQEPMTALNPTRRIGLQMMDVIRHHQPISRREARAKAIDLLEEMQIPDAVEVMSRYPFELSGGMRQRVMIALAFSCEPQLIIADEPTTALDVTVQLQVLRLLKHKARASGTAVLFISHDMAVVSQLCDSVYVMYAGSVIESGVTADVIHHPRHPYTIGLLQCAPEHGVPRQLLPAIPGTVPNLTHLPDGCAFRDRCYAAGAQCENVPALTACGDNNQRCACWYPQQEVISV | 6.47 ± 1.1 | 3.49 ± 0.17 | 4.03 ± 0.098 | 2.24 | 4.53 ± 0.11 | 2.28 ± 0.3 | 3.41 ± 0.54 | – | 4.02 ± 0.26 | 7.62 ± 0.58 | – | –
3 | MLSNDILRSVRYILKANNNDLVRILALGNVEATAEQIAVWLRKEDEEGFQRCPDIVLSSFLNGLIYEKRGKDESAPALEPERRINNNIVLKKLRIAFSLKTDDILAILTEQQFRVSMPEITAMMRAPDHKNFRECGDQFLRYFLRGLAARQHVKKG | 5.25 ± 0.12 | – | – | 6.64 ± 0.089 | 5.21 ± 0.48 | 3.21 ± 0.69 | 6.3 ± 0.61 | 11.7 ± 1 | 5.08 ± 0.49 | 8.7 ± 0.92 | 4.99 ± 0.15 | –
4 | MNEHHQPFEEIKLINANGAEQWSARQLGKLLGYSEYRHFIPVLTRAKEACENSGHTIDDHFEEILDMVKIGSNAKRALKDIVLSRYACYLVVQNGDPAKPVIAAGQTYFAIQTRRQELADDEAFKQLREDEKRLFLRNELKEHNKQLVEAAQQAGVATATDFAIFQNHGYQGLYGGLDQKAIHQRKGLKKNQKILDHMGSTELAANLFRATQTEEKLKRDGVNSKQQANTTHFDVGRKVRQTIQELGGTMPEELPTPQVSIKQLENSVKITEKK | – | – | – | – | – | 2.12 | 3.02 | 5.87 | – | – | – | –
5 | MWSEYSLEVVDAVARNGSFSAAAQELHRVPSAVSYTVRQLEEWLAVPLFERRHRDVELTAAGAWFLKEGRSVVKKMQITRQQCQQIANGWRGQLAIAVDNIVRPERTRQMIVDFYRHFDDVELLVFQEVFNGVWDALSDGRVELAIGATRAIPVGGRYAFRDMGMLSWSCVVASHHPLALMDGPFSDDTLRNWPSLVREDTSRTLPKRITWLLDNQKRVVVPDWESSATCISAGLCIGMVPTHFAKPWLNEGKWVALELENPFPDSACCLTWQQNDMSPALTWLLEYLGDSETLNKEWLREPEETPATGD [P0ACR2] | 5.69 ± 0.2 | 5.02 ± 0.17 | 4.85 ± 1.3 | – | 4.6 ± 0.3 | 2.594 ± 0.0057 | > 8 | 10.5 ± 0.11 | 4.8 ± 0.11 | 8.76 ± 0.09 | 5.31 ± 0.39 | 8.51 ± 0.64
6 | MSKKLIALCACPMGLAHTFMAAQALEEAAVEAGYEVKIETQGADGIQNRLTAQDIAEATIIIHSVAVTPEDNERFESRDVYEITLQDAIKNAAGIIKEIEEMIASEQQ | 4.54 ± 0.89 | – | – | – | – | 2.27 ± 0.1 | 4.02 ± 0.38 | 5.83 ± 0.31 | – | – | – | –
